Reference: paper PMC7804408

Target: trigger factor (TF) (E. coli) (UniProt P0A850)
Assay: SPR; TF immobilised on a CM5 chip by amine coupling, analytes injected at 20 μL/min for 90 s; Biacore X, 22 °C; 10 mM HEPES pH 7.5, 150 mM NaCl, 3 mM EDTA, 0.005% P20; steady-state response against concentration, one-site Langmuir model; apparent Kd for ClpX

Sequence of trigger factor (TF) (E. coli) (P0A850 whole entry): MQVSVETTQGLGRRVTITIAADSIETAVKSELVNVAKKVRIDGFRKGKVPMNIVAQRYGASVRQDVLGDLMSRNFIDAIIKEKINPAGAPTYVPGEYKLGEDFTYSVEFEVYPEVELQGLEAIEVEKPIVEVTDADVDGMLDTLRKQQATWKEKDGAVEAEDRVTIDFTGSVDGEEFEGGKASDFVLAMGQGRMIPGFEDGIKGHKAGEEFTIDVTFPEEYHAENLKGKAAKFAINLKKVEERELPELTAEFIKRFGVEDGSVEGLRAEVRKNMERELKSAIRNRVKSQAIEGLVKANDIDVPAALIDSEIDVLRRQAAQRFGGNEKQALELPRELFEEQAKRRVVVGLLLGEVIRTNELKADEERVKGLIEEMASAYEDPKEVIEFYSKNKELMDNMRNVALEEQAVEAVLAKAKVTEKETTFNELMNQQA

- Kd: 2000 nM
Substance: ClpX∆ZBD (AAA+ domain of ClpX) (domain or fragment)
